{
  "source": "IntAct's records for PubMed 31515488",
  "parents": {"B1": {"name": "Progranulin (Homo sapiens), P28799 (parent)", "chain": "MWTLVSWVALTAGLVAGTRCPDGQFCPVACCLDPGGASYSCCRPLLDKWPTTLSRHLGGPCQVDAHCSAGHSCIFTVSGTSSCCPFPEAVACGDGHHCCPRGFHCSADGRSCFQRSGNNSVGAIQCPDSQFECPDFSTCCVMVDGSWGCCPMPQASCCEDRVHCCPHGAFCDLVHTRCITPTGTHPLAKKLPAQRTNRAVALSSSVMCPDARSRCPDGSTCCELPSGKYGCCPMPNATCCSDHLHCCPQDTVCDLIQSKCLSKENATTDLLTKLPAHTVGDVKCDMEVSCPDGYTCCRLQSGAWGCCPFTQAVCCEDHIHCCPAGFTCDTQKGTCEQGPHQVPWMEKAPAHLSLPDPQALKRDVPCDNVSSCPSSDTCCQLTSGEWGCCPIPEAVCCSDHQHCCPQGYTCVAEGQCQRGSEIVAGLEKMPARRASLSHPRDIGCDQHTSCPVGQTCCPSLGGSWACCQLPHAVCCEDRQHCCPAGYTCNVKARSCEKEVVSAQPATFLARSPHVGVKDVECGEGHFCHDNQTCCRDNRQGWACCPYRQGVCCADRRHCCPAGFRCAARGTKCLRREAPRWDAPLRDPALRQLL", "partner": "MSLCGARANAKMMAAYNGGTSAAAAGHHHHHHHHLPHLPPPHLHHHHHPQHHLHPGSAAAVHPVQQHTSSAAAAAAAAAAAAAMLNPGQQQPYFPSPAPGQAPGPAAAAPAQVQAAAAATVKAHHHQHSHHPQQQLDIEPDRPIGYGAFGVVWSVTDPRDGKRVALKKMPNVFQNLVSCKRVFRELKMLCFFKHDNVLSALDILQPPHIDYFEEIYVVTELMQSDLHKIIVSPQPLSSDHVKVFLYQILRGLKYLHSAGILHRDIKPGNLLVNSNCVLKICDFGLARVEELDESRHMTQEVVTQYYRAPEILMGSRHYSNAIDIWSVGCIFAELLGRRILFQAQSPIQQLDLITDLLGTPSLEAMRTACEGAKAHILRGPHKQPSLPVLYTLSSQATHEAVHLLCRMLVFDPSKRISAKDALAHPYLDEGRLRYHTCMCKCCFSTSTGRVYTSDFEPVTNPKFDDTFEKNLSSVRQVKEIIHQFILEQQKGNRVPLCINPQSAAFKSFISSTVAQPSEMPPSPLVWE"}, "B2": {"name": "Emerin (Homo sapiens), P50402 (parent)", "chain": "MDNYADLSDTELTTLLRRYNIPHGPVVGSTRRLYEKKIFEYETQRRRLSPPSSSAASSYSFSDLNSTRGDADMYDLPKKEDALLYQSKGYNDDYYEESYFTTRTYGEPESAGPSRAVRQSVTSFPDADAFHHQVHDDDLLSSSEEECKDRERPMYGRDSAYQSITHYRPVSASRSSLDLSYYPTSSSTSFMSSSSSSSSWLTRRAIRPENRAPGAGLGQDRQVPLWGQLLLFLVFVIVLFFIYHFMQAEEGNPF", "partner": "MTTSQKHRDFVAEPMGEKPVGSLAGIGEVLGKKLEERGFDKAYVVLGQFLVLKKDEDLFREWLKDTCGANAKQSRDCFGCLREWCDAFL"}, "B3": {"name": "Hematopoietic prostaglandin D synthase (Homo sapiens), O60760 (parent)", "chain": "MPNYKLTYFNMRGRAEIIRYIFAYLDIQYEDHRIEQADWPEIKSTLPFGKIPILEVDGLTLHQSLAIARYLTKNTDLAGNTEMEQCHVDAIVDTLDDFMSCFPWAEKKQDVKEQMFNELLTYNAPHLMQDLDTYLGGREWLIGNSVTWADFYWEICSTTLLVFKPDLLDNHPRLVTLRKKVQAIPAVANWIKRRPQTKL", "partner": "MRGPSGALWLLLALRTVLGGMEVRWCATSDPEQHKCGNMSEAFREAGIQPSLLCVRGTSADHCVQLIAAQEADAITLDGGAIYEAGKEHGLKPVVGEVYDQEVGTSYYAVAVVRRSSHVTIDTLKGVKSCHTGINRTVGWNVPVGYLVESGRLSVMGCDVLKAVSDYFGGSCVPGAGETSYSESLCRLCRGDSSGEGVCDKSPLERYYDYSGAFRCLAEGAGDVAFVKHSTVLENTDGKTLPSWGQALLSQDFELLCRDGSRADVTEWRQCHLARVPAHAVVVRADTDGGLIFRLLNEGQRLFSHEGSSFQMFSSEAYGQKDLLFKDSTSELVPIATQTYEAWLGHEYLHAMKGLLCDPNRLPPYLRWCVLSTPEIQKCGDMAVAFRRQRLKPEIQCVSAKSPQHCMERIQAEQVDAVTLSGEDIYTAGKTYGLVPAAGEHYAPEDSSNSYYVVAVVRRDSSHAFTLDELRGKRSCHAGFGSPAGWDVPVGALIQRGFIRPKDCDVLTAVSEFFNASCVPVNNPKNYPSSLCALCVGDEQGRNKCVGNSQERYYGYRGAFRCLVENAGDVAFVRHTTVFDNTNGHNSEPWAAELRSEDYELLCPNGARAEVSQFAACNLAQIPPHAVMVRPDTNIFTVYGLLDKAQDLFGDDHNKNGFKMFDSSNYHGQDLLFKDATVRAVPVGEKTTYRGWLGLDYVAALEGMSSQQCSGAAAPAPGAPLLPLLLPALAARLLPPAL"}},
  "data": [
    {"variants_of": "B1", "settings": "with nlk_human NLK", "values": [
      {"variant": "MWTLVSWVALTAGLVAGTWCPDGQFCPVACCLDPGGASYSCCRPLLDKWPTTLSRHLGGPCQVDAHCSAGHSCIFTVSGTSSCCPFPEAVACGDGHHCCPRGFHCSADGRSCFQRSGNNSVGAIQCPDSQFECPDFSTCCVMVDGSWGCCPMPQASCCEDRVHCCPHGAFCDLVHTRCITPTGTHPLAKKLPAQRTNRAVALSSSVMCPDARSRCPDGSTCCELPSGKYGCCPMPNATCCSDHLHCCPQDTVCDLIQSKCLSKENATTDLLTKLPAHTVGDVKCDMEVSCPDGYTCCRLQSGAWGCCPFTQAVCCEDHIHCCPAGFTCDTQKGTCEQGPHQVPWMEKAPAHLSLPDPQALKRDVPCDNVSSCPSSDTCCQLTSGEWGCCPIPEAVCCSDHQHCCPQGYTCVAEGQCQRGSEIVAGLEKMPARRASLSHPRDIGCDQHTSCPVGQTCCPSLGGSWACCQLPHAVCCEDRQHCCPAGYTCNVKARSCEKEVVSAQPATFLARSPHVGVKDVECGEGHFCHDNQTCCRDNRQGWACCPYRQGVCCADRRHCCPAGFRCAARGTKCLRREAPRWDAPLRDPALRQLL", "note": "[R19W]", "effect of a mutation on the interaction": "with no effect"}
    ]},
    {"variants_of": "B2", "settings": "with baf_human BANF1, O75531", "values": [
      {"variant": "MDNYADLSDTELTTLLRRYNIPHGPVVGSTRRLYEKKIFEYETQRRRLSPPSSSAASSYSFSDLNSTRGDAVMYDLPKKEDALLYQSKGYNDDYYEESYFTTRTYGEPESAGPSRAVRQSVTSFPDADAFHHQVHDDDLLSSSEEECKDRERPMYGRDSAYQSITHYRPVSASRSSLDLSYYPTSSSTSFMSSSSSSSSWLTRRAIRPENRAPGAGLGQDRQVPLWGQLLLFLVFVIVLFFIYHFMQAEEGNPF", "note": "[D72V]", "effect of a mutation on the interaction": "with no effect"},
      {"variant": "MDNYADLSDTELTTLLRRYNIPHGPVVGSTRRLYEKKIFEYETQRRRLSPPSSSAASSYSFSDLNSTRGDADMYDLPKKEDALLYQSKGYNDDYYEESYFTTRTYGEPESAGPSRAVRQSVTSFPDADAFHHQVHDDDLLSSSEEECKDRERPMYGRDSAYQSITHYRPVSASRSSLDLSYYPTSSSTSFMSSSSSSSSWLTHRAIRPENRAPGAGLGQDRQVPLWGQLLLFLVFVIVLFFIYHFMQAEEGNPF", "note": "[R203H]", "effect of a mutation on the interaction": "with no effect"},
      {"variant": "MDNYADLSDTELTTLLRRYNIPHGPVVGSTRRLYEKKIFEYETQRRRLSPPSSSAASSYSFSDLNSTRGDADMYDLPKKEDALLYQSKGYNDDYYEESYFTTRTYGEPESAGPSRAVRQSVTSFPDADAFHHQVHDDDLLSSSEEECKDRERPMYSRDSAYQSITHYRPVSASRSSLDLSYYPTSSSTSFMSSSSSSSSWLTRRAIRPENRAPGAGLGQDRQVPLWGQLLLFLVFVIVLFFIYHFMQAEEGNPF", "note": "[G156S]", "effect of a mutation on the interaction": "with no effect"},
      {"variant": "MDNYADLSDTELTTLLRRYNIPHGPVVGSTRRLYEKKIFEYETQRRRLSPPSSFAASSYSFSDLNSTRGDADMYDLPKKEDALLYQSKGYNDDYYEESYFTTRTYGEPESAGPSRAVRQSVTSFPDADAFHHQVHDDDLLSSSEEECKDRERPMYGRDSAYQSITHYRPVSASRSSLDLSYYPTSSSTSFMSSSSSSSSWLTRRAIRPENRAPGAGLGQDRQVPLWGQLLLFLVFVIVLFFIYHFMQAEEGNPF", "note": "[S54F]", "effect of a mutation on the interaction": "with no effect"},
      {"variant": "MDNYADLSDTELTTLLRRYNIPHGPVVGSTRRLYEKKIFEYETQRRRLSPPSSSAASSYSFSDLNSTRGDADMYDLPKKEDALLYQSKGYNDDYYEESYFTTRTYGEPESAGPSRAVRQSVTSFPDADAFHHQVHDDDLLSSSEEECKDRERPMYGRDSAYQSITHYRPVSASRSSLDLSYYTTSSSTSFMSSSSSSSSWLTRRAIRPENRAPGAGLGQDRQVPLWGQLLLFLVFVIVLFFIYHFMQAEEGNPF", "note": "[P183T]", "effect of a mutation on the interaction": "with no effect"}
    ]},
    {"variants_of": "B3", "settings": "with trfm_human MELTF", "values": [
      {"variant": "MPNYKLTYFNMRGRAEIIRYIFAYLDIQYEDHRIEQADWPEIKSTLPFGKIPILEVDGLTLHQSLAIARYLTKNTDLAGNTEMEQCHVDAIVDTLDDFMSCFPWAEKKQDVKEQMFNELLTYNAPHLTQDLDTYLGGREWLIGNSVTWADFYWEICSTTLLVFKPDLLDNHPRLVTLRKKVQAIPAVANWIKRRPQTKL", "note": "[M128T]", "effect of a mutation on the interaction": "disrupting interaction strength"}
    ]}
  ]
}
